US20100158968A1 (PURDUE RESEARCH FOUNDATION, published 2010)
Non-standard residues stand in square brackets, D forms with d. No end group written: not given here.

Experiments:
Assay in all cases: cell-based or functional assay
[1] = molecular target: T1, mitogen-activated protein kinase-activated protein kinase 2 (human MK2) (human, UniProt P49137 46-400, limits assumed)
[2] = molecular target: T1, mitogen-activated protein …; remark: listed apart in the source
[3] = molecular target: MK3 (mitogen-activated protein kinase-activated protein kinase 3) (human, UniProt Q16644 1-382, limits assumed)
[4] = molecular target: T2, PRAK (h) (p38 regulated/activated protein kinase) (human, UniProt Q8IW41 1-473, limits assumed)
T2 sequence (looked up): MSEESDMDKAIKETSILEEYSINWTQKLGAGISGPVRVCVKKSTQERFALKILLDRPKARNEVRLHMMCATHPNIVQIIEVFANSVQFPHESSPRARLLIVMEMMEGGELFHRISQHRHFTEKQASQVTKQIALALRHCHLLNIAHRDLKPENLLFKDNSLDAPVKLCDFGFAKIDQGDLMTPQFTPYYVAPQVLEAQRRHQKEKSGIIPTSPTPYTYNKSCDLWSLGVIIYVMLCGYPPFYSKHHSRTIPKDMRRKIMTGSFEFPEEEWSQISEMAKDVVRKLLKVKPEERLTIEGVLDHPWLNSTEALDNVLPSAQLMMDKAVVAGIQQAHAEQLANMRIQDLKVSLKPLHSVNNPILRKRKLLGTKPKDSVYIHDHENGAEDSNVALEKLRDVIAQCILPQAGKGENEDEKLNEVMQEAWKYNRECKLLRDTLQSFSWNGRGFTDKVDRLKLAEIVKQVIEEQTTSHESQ

[5] = molecular target: CaMKI (h) (calcium/calmodulin-dependent protein kinase) (human, UniProt Q14012 1-370, limits assumed)
[6] = molecular target: T3, IRAK4 (h) (IL-1 receptor (IL-1R)-associated kinase) (human, UniProt Q9NWZ3 1-460, limits assumed)
T3 sequence (looked up): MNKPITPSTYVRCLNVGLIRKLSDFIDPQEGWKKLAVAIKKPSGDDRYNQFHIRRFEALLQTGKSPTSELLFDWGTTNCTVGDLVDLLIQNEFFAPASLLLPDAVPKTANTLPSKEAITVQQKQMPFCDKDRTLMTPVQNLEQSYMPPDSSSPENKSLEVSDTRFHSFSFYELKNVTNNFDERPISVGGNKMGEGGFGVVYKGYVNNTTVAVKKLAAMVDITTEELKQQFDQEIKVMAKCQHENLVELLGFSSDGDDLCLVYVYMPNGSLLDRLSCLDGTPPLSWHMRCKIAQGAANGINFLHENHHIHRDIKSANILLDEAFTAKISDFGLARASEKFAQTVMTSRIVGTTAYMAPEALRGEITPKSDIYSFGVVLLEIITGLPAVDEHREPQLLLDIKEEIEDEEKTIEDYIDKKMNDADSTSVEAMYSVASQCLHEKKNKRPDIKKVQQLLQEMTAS

[7] = molecular target: MLCK (h) (myosin light chain kinase) (human)
[8] = molecular target: PKBβ (h) (protein kinase B) (human, UniProt P31751 120-481, limits assumed)
[9] = molecular target: ROCK-I (h) (Rho-associated serine/threonine kinase) (human, UniProt Q13464 17-535, limits assumed)
[10] = molecular target: SAPK2a (h) (p38α) (human, UniProt Q16539 1-360)
Chain of SAPK2a (h) (p38α) (Q16539 whole entry): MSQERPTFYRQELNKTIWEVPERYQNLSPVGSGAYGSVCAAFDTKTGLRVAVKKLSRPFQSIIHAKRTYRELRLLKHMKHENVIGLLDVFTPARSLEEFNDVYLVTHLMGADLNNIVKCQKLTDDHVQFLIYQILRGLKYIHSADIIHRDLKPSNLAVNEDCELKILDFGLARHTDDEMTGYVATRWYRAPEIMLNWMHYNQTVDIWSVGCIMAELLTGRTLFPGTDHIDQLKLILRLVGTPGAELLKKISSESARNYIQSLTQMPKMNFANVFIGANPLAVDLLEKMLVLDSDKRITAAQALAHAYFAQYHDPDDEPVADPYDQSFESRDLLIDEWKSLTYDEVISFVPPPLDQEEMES

Chain of CaMKI (h) (calcium/calmodulin-dependent protein kinase) (Q14012 whole entry): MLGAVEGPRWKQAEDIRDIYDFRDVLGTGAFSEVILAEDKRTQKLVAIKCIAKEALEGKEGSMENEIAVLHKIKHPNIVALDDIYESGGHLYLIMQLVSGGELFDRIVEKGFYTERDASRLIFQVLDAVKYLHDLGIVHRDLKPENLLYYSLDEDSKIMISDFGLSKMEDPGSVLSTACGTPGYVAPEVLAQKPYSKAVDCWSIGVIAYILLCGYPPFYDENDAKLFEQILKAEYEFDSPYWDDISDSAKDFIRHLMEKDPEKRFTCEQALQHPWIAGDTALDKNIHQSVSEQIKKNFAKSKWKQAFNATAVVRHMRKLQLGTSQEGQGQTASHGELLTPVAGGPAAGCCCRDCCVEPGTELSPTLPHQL
Chain of ROCK-I (h) (Rho-associated serine/threonine kinase) (Q13464 17-535 limits assumed): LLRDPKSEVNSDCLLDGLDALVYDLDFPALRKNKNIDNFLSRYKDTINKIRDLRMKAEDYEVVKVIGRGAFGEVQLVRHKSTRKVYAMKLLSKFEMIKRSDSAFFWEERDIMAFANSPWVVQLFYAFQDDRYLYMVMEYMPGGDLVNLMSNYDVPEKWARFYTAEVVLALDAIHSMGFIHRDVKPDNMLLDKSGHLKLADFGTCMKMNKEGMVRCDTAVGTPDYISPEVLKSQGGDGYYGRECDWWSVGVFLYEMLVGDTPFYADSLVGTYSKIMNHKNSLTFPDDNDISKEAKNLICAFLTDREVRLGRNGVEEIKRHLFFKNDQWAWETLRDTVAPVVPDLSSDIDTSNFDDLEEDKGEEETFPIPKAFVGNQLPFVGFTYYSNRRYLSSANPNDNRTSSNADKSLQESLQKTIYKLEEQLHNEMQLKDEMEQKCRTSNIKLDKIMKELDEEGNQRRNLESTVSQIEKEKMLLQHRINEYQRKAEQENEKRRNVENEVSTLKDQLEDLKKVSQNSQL
Chain of MK3 (mitogen-activated protein kinase-activated protein kinase 3) (Q16644 whole entry): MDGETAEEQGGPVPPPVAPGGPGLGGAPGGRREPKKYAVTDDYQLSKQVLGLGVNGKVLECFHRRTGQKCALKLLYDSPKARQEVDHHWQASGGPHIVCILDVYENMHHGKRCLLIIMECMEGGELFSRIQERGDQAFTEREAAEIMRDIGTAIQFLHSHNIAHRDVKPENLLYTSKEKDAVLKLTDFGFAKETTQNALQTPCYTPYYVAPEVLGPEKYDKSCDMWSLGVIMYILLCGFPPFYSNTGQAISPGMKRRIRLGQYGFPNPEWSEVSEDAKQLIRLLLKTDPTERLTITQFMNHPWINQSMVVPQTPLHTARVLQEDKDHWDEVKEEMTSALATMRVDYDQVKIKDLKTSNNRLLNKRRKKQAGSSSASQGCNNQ
Chain of PKBβ (h) (protein kinase B) (P31751 120-481 limits assumed): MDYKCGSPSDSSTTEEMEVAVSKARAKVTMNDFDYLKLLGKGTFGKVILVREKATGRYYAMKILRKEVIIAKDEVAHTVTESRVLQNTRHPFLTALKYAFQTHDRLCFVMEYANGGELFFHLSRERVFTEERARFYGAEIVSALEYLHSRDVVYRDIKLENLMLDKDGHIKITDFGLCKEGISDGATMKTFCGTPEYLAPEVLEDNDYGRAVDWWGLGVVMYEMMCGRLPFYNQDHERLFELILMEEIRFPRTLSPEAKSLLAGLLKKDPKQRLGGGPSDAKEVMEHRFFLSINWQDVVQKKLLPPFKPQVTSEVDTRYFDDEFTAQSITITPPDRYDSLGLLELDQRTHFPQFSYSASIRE
T1 sequence (P49137 46-400 limits assumed): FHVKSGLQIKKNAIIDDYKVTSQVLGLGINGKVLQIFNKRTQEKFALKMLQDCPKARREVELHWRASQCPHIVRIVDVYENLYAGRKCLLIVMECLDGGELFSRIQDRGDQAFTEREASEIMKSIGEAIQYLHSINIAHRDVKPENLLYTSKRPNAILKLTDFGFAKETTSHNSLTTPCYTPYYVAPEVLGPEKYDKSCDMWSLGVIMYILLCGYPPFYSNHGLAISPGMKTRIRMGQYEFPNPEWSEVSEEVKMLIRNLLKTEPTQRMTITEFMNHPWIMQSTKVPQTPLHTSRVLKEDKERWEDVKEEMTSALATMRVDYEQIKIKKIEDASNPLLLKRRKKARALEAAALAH

B1: KALNRQdLGVAA (peptide)
peptide: KALNRQ[dL]GVAA-NH2
modifications: N-terminus assumed
SMILES: CC(C)C[C@H](NC(=O)[C@H](C)NC(=O)[C@@H](N)CCCCN)C(=O)N[C@@H](CC(N)=O)C(=O)N[C@@H](CCCNC(=N)N)C(=O)N[C@@H](CCC(N)=O)C(=O)N[C@H](CC(C)C)C(=O)NCC(=O)N[C@H](C(=O)N[C@@H](C)C(=O)N[C@@H](C)C(N)=O)C(C)C
B1 was tested, and the “% change in MK2 reaction velocity vs unsubstituted …, peptide at 100 µM” value (“% change in MK2 reaction velocity” for short) [1] was 257%.

In the case of YARAAARQARALARQLGVAA, the “Kinase Activity, peptide at 300 µM, radiometric assay” value (from here on “Kinase Activity, peptide at 300 µM”) [2] is reported as -7%, the “Kinase Activity, peptide at 300 µM” value [3] is reported as 5% and the “Kinase Activity, peptide at 300 µM” value [4] is reported as 86%. For the same binder, the “Kinase Activity, peptide at 300 µM” value [5] was 2%, the “Kinase Activity, peptide at 300 µM” value [6] was 23% and the “Kinase Activity, peptide at 300 µM” value [7] was 9%. For the same binder, the “Kinase Activity, peptide at 300 µM” value [8] was 17%, the “Kinase Activity, peptide at 300 µM” value [9] was 27% and the “Kinase Activity, peptide at 300 µM” value [10] was 66%.

KALARQLGVAA was tested, and the “% change in MK2 reaction velocity” value [1] was -61%.

B2: KALNdRQLGVAA (peptide)
peptide: KALN[dR]QLGVAA-NH2
modifications: N-terminus assumed
SMILES: CC(C)C[C@H](NC(=O)[C@H](C)NC(=O)[C@@H](N)CCCCN)C(=O)N[C@@H](CC(N)=O)C(=O)N[C@H](CCCNC(=N)N)C(=O)N[C@@H](CCC(N)=O)C(=O)N[C@@H](CC(C)C)C(=O)NCC(=O)N[C@H](C(=O)N[C@@H](C)C(=O)N[C@@H](C)C(N)=O)C(C)C
B2 was tested, and the “% change in MK2 reaction velocity” value [1] was 206%.

B3: KALNRQLGdVAA (peptide)
peptide: KALNRQLG[dV]AA-NH2
modifications: N-terminus assumed
SMILES: CC(C)C[C@H](NC(=O)[C@H](C)NC(=O)[C@@H](N)CCCCN)C(=O)N[C@@H](CC(N)=O)C(=O)N[C@@H](CCCNC(=N)N)C(=O)N[C@@H](CCC(N)=O)C(=O)N[C@@H](CC(C)C)C(=O)NCC(=O)N[C@@H](C(=O)N[C@@H](C)C(=O)N[C@@H](C)C(N)=O)C(C)C
B3 was tested, and the “% change in MK2 reaction velocity” value [1] was 160%.

KKKALNRQLGVAA was tested, and the “% change in MK2 reaction velocity” value [1] was -9%.

For KALNRQLGVAA [Alanine-substitution peptide printed as KALNRQLGVAA (Table 1, fourth alanine row)], the “% change in MK2 reaction velocity” value [1] was 258%.

KALNAQLGVAA was tested, and the “% change in MK2 reaction velocity” value [1] was 258%.

KAANRQLGVAA was tested, and the “% change in MK2 reaction velocity” value [1] was 52%.

B4: KALNRdQLGVAA (peptide)
peptide: KALNR[dQ]LGVAA-NH2
modifications: N-terminus assumed
SMILES: CC(C)C[C@H](NC(=O)[C@H](C)NC(=O)[C@@H](N)CCCCN)C(=O)N[C@@H](CC(N)=O)C(=O)N[C@@H](CCCNC(=N)N)C(=O)N[C@H](CCC(N)=O)C(=O)N[C@@H](CC(C)C)C(=O)NCC(=O)N[C@H](C(=O)N[C@@H](C)C(=O)N[C@@H](C)C(N)=O)C(C)C
In the case of B4, the “% change in MK2 reaction velocity” value [1] is reported as 176%.

In the case of KALNRQLAVAA, the “% change in MK2 reaction velocity” value [1] is reported as -28%.

B5: KALdNRQLGVAA (peptide)
peptide: KAL[dN]RQLGVAA-NH2
modifications: N-terminus assumed
SMILES: CC(C)C[C@H](NC(=O)[C@H](C)NC(=O)[C@@H](N)CCCCN)C(=O)N[C@H](CC(N)=O)C(=O)N[C@@H](CCCNC(=N)N)C(=O)N[C@@H](CCC(N)=O)C(=O)N[C@@H](CC(C)C)C(=O)NCC(=O)N[C@H](C(=O)N[C@@H](C)C(=O)N[C@@H](C)C(N)=O)C(C)C
For B5, the “% change in MK2 reaction velocity” value [1] was -5%.

In the case of YGRKKRRQRRR, the “% change in MK2 reaction velocity” value [1] is reported as 44%.

With WLRRIKAWLRRIKALNRQLGV the “% change in MK2 reaction velocity” value [1] was -132%.

KALNRQAGVAA was tested, and the “% change in MK2 reaction velocity” value [1] was 18%.

In the case of FAKLAARLYRLARQLGVAA, the “Kinase Activity, peptide at 100 µM, radiometric assay” value (“Kinase Activity, peptide at 100 µM” for short) [2] is reported as 5%, the “Kinase Activity, peptide at 100 µM” value [3] is reported as 10% and the “Kinase Activity, peptide at 100 µM” value [4] is reported as 131%. For the same binder, the “Kinase Activity, peptide at 100 µM” value [5] was 0%, the “Kinase Activity, peptide at 100 µM” value [6] was 13% and the “Kinase Activity, peptide at 100 µM” value [7] was 1%. For the same binder, the “Kinase Activity, peptide at 100 µM” value [8] was 16%, the “Kinase Activity, peptide at 100 µM” value [9] was 25% and the “Kinase Activity, peptide at 100 µM” value [10] was 30%.

WLRRIKAWLRRIKALNRQLGVAA was tested, and the “Kinase Activity, peptide at 30 µM, radiometric assay” value (“Kinase Activity, peptide at 30 µM” for short) [2] was 2%, the “Kinase Activity, peptide at 30 µM” value [3] was 16% and the “Kinase Activity, peptide at 30 µM” value [4] was 67%. The “Kinase Activity, peptide at 30 µM” value [5] was 9%, the “Kinase Activity, peptide at 30 µM” value [6] was 12% and the “Kinase Activity, peptide at 30 µM” value [7] was 4%. The “Kinase Activity, peptide at 30 µM” value [8] was 18%, the “Kinase Activity, peptide at 30 µM” value [9] was 0% and the “Kinase Activity, peptide at 30 µM” value [10] was 61%.

KALNRQLGAAA was tested, and the “% change in MK2 reaction velocity” value [1] was 273%.

For KAFAKLAARLYRLARQLGVAA, the “Kinase Activity, peptide at 100 µM” value [2] was 8%, the “Kinase Activity, peptide at 100 µM” value [3] was 17% and the “Kinase Activity, peptide at 100 µM” value [4] was 148%. The “Kinase Activity, peptide at 100 µM” value [5] was 0%, the “Kinase Activity, peptide at 100 µM” value [6] was 16% and the “Kinase Activity, peptide at 100 µM” value [7] was 2%. The “Kinase Activity, peptide at 100 µM” value [8] was 28%, the “Kinase Activity, peptide at 100 µM” value [9] was 29% and the “Kinase Activity, peptide at 100 µM” value [10] was 59%.

With WLRRIKA [WLRRIKA (non-functional)] the “% change in MK2 reaction velocity” value [1] was 4310%.

With KALNRQLGVA the “% change in MK2 reaction velocity” value [1] was 0%.

For WLRRIKAWLRRIKA, the “% change in MK2 reaction velocity” value [1] was -83%.

B6: KAdLNRQLGVAA (peptide)
peptide: KA[dL]NRQLGVAA-NH2
modifications: N-terminus assumed
SMILES: CC(C)C[C@H](NC(=O)[C@H](CCC(N)=O)NC(=O)[C@H](CCCNC(=N)N)NC(=O)[C@H](CC(N)=O)NC(=O)[C@@H](CC(C)C)NC(=O)[C@H](C)NC(=O)[C@@H](N)CCCCN)C(=O)NCC(=O)N[C@H](C(=O)N[C@@H](C)C(=O)N[C@@H](C)C(N)=O)C(C)C
For B6, the “% change in MK2 reaction velocity” value [1] was 46%.

With YARAAARQARALNRQLGVAA the “Kinase Activity, peptide at 300 µM” value [2] was 10%, the “Kinase Activity, peptide at 300 µM” value [3] was 19% and the “Kinase Activity, peptide at 300 µM” value [4] was 81%. For the same binder, the “Kinase Activity, peptide at 300 µM” value [5] was 8%, the “Kinase Activity, peptide at 300 µM” value [6] was 68% and the “Kinase Activity, peptide at 300 µM” value [7] was 66%. For the same binder, the “Kinase Activity, peptide at 300 µM” value [8] was 96%, the “Kinase Activity, peptide at 300 µM” value [9] was 95% and the “Kinase Activity, peptide at 300 µM” value [10] was 100%.
